Results on nine molecules are retold here after patent publication US20150344570A1 (published 2015).

For assay [1], the target named is T1, FcγRIa extracellular domain with C-terminal His tag (human, UniProt P12314 16-292).
T1 construct: extracellular domain; Soluble receptor used as analyte in Biacore; also called FcgRI; FcgRIa
The experiment in a line: SPR Biacore, antibody captured on antigen-peptide chip, FcγR as analyte.

For assay [2], the target named is T2, FcγRIIb extracellular domain with C-terminal His tag (human, UniProt P31994 43-217).
T2 construct: extracellular domain; Soluble receptor used as analyte in Biacore; also called FcgRIIb; CD32B
T2 sequence (looked up): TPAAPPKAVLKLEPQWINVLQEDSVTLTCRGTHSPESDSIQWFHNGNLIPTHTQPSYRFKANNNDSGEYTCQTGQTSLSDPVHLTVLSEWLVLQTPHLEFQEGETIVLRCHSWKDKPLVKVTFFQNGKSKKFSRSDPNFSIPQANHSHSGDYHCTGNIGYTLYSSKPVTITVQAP
Described as above.

The target of assay [3] is T3, FcγRIIa H (FcgRIIa type H, His at position 131), extracellular domain with C-terminal His tag (human, UniProt P12318 34-217).
T3 construct: extracellular domain; also called 2aH; FcgRIIa H; not shown: His tag at the C terminus
T3 sequence (looked up): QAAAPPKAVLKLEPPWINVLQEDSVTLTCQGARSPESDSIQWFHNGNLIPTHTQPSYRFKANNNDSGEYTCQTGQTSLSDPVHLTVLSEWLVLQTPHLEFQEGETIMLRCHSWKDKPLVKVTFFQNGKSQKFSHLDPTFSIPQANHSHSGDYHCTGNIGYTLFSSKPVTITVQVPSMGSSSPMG
The experiment in a line: SPR; He/Con_2aH divided by He/Con_2b (FcγRIIa H binding over FcγRIIb binding).

Assay [4] addresses T3, FcγRIIa H (FcgRIIa type H, His at …). The experiment in a line: SPR (Biacore), relative binding, GpH7-A5/GpH7-B3/GpL16-k0 = 100.
Assay [5] deals with T4, FcγRIIb, extracellular domain with C-terminal His tag (human, UniProt P31994 43-217).
T4 construct: extracellular domain; also called 2b; FcgRIIb; not shown: His tag at the C terminus
T4 sequence (looked up): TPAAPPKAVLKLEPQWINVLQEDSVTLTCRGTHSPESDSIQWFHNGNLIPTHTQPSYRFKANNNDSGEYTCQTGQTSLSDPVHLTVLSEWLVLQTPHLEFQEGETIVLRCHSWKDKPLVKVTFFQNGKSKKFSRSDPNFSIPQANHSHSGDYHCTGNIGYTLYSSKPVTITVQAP
Described as above.

T1 sequence (P12314 16-292): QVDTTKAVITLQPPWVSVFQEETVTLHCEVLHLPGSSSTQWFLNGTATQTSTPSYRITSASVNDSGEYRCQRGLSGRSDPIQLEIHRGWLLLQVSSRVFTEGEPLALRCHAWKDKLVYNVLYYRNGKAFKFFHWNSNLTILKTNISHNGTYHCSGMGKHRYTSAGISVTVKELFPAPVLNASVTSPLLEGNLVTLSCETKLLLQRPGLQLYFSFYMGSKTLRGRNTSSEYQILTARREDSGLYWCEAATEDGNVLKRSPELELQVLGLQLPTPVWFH

B1: GpH7-A5/GpH7-B3 variant H268_06M/GpL16-k0 (antibody, human IgG1, kappa)
heavy 1: not shown
heavy 2: not shown
light: DIVMTQSPLSLPVTPGEPASISCQASESLVHSNRNTYLHWYLQKPGQSPQLLIYKVSNRFSGVPDRFSGSGSGTDFTLKISRVEAEDVGVYYCSQNTHVPPTFGQGTKVEIERTVAAPSVFIFPPSDEQLKSGTASVVCLLNNFYPREAKVQWKVDNALQSGNSQESVTEQDSKDSTYSLSSTLTLSKADYEKHKVYACEVTHQGLSSPVTKSFNRGEC
notes: Heterodimerized anti-glypican-3 IgG1; mutation in the GpH7-B3 chain only; also called He Ab H268M
On to B1, for which the He/Con_1a in assay [1] was 105 relative, GpH7-A5/GpH7-B3/GpL16-k0 = 100. Moreover, in assay [2], the He/Con_2b was 65.7 relative, GpH7-A5/GpH7-B3/GpL16-k0 = 100.

B2: GpH7-A5/GpH7-B3 variant E269_05P/GpL16-k0 (antibody, human IgG1, kappa)
heavy 1: not shown
heavy 2: not shown
light: DIVMTQSPLSLPVTPGEPASISCQASESLVHSNRNTYLHWYLQKPGQSPQLLIYKVSNRFSGVPDRFSGSGSGTDFTLKISRVEAEDVGVYYCSQNTHVPPTFGQGTKVEIERTVAAPSVFIFPPSDEQLKSGTASVVCLLNNFYPREAKVQWKVDNALQSGNSQESVTEQDSKDSTYSLSSTLTLSKADYEKHKVYACEVTHQGLSSPVTKSFNRGEC
notes: Heterodimerized anti-glypican-3 IgG1; mutation in the GpH7-B3 chain only; also called He Ab E269P
As to B2, in assay [1], the He/Con_1a was 102 relative, GpH7-A5/GpH7-B3/GpL16-k0 = 100. Moreover, the He/Con_2b in assay [2] is 52.6 relative, GpH7-A5/GpH7-B3/GpL16-k0 = 100.

B3: GpH7-A5/GpH7-B3 variant E269_06M/GpL16-k0 (antibody, human IgG1, kappa)
heavy 1: not shown
heavy 2: not shown
light: DIVMTQSPLSLPVTPGEPASISCQASESLVHSNRNTYLHWYLQKPGQSPQLLIYKVSNRFSGVPDRFSGSGSGTDFTLKISRVEAEDVGVYYCSQNTHVPPTFGQGTKVEIERTVAAPSVFIFPPSDEQLKSGTASVVCLLNNFYPREAKVQWKVDNALQSGNSQESVTEQDSKDSTYSLSSTLTLSKADYEKHKVYACEVTHQGLSSPVTKSFNRGEC
notes: Heterodimerized anti-glypican-3 IgG1; mutation in the GpH7-B3 chain only; also called He Ab E269M
Consider B3, for which the He/Con_1a in assay [1] was 104 relative, GpH7-A5/GpH7-B3/GpL16-k0 = 100. Also, the He/Con_2b in assay [2] was 46.7 relative, GpH7-A5/GpH7-B3/GpL16-k0 = 100.

B4: GpH7-A5/GpH7-B3 variant E269_03V/GpL16-k0 (antibody, human IgG1, kappa)
heavy 1: not shown
heavy 2: not shown
light: DIVMTQSPLSLPVTPGEPASISCQASESLVHSNRNTYLHWYLQKPGQSPQLLIYKVSNRFSGVPDRFSGSGSGTDFTLKISRVEAEDVGVYYCSQNTHVPPTFGQGTKVEIERTVAAPSVFIFPPSDEQLKSGTASVVCLLNNFYPREAKVQWKVDNALQSGNSQESVTEQDSKDSTYSLSSTLTLSKADYEKHKVYACEVTHQGLSSPVTKSFNRGEC
notes: Heterodimerized anti-glypican-3 IgG1; mutation in the GpH7-B3 chain only; also called He Ab E269V
On to B4, for which, in assay [1], the He/Con_1a is 103 relative, GpH7-A5/GpH7-B3/GpL16-k0 = 100. Also, the He/Con_2b in assay [2] was 45.1 relative, GpH7-A5/GpH7-B3/GpL16-k0 = 100.

B5: GpH7-A5/GpH7-B3 variant Y300_10E/GpL16-k0 (antibody, human IgG1, kappa)
heavy 1: not shown
heavy 2: not shown
light: DIVMTQSPLSLPVTPGEPASISCQASESLVHSNRNTYLHWYLQKPGQSPQLLIYKVSNRFSGVPDRFSGSGSGTDFTLKISRVEAEDVGVYYCSQNTHVPPTFGQGTKVEIERTVAAPSVFIFPPSDEQLKSGTASVVCLLNNFYPREAKVQWKVDNALQSGNSQESVTEQDSKDSTYSLSSTLTLSKADYEKHKVYACEVTHQGLSSPVTKSFNRGEC
notes: He Ab; alteration in one H chain only; also called He Ab
Turning to B5, in assay [3], the “He_2aH/2b (IIaH/IIb)” value was 0.73 ratio. Further, the He/Con_2aH in assay [4] is 97.2 % of control. Further, the He/Con_2b in assay [5] is 134 % of control.

B6: GpH7-A5/GpH7-B3 variant E269_13S/GpL16-k0 (antibody, human IgG1, kappa)
heavy 1: not shown
heavy 2: not shown
light: DIVMTQSPLSLPVTPGEPASISCQASESLVHSNRNTYLHWYLQKPGQSPQLLIYKVSNRFSGVPDRFSGSGSGTDFTLKISRVEAEDVGVYYCSQNTHVPPTFGQGTKVEIERTVAAPSVFIFPPSDEQLKSGTASVVCLLNNFYPREAKVQWKVDNALQSGNSQESVTEQDSKDSTYSLSSTLTLSKADYEKHKVYACEVTHQGLSSPVTKSFNRGEC
notes: Heterodimerized anti-glypican-3 IgG1; mutation in the GpH7-B3 chain only; also called He Ab E269S
As for B6, the He/Con_1a in assay [1] is 103 relative, GpH7-A5/GpH7-B3/GpL16-k0 = 100. For the same molecule, the He/Con_2b in assay [2] was 47.8 relative, GpH7-A5/GpH7-B3/GpL16-k0 = 100.

B7: GpH7-A5/GpH7-B3 variant E269_02A/GpL16-k0 (antibody, human IgG1, kappa)
heavy 1: not shown
heavy 2: not shown
light: DIVMTQSPLSLPVTPGEPASISCQASESLVHSNRNTYLHWYLQKPGQSPQLLIYKVSNRFSGVPDRFSGSGSGTDFTLKISRVEAEDVGVYYCSQNTHVPPTFGQGTKVEIERTVAAPSVFIFPPSDEQLKSGTASVVCLLNNFYPREAKVQWKVDNALQSGNSQESVTEQDSKDSTYSLSSTLTLSKADYEKHKVYACEVTHQGLSSPVTKSFNRGEC
notes: Heterodimerized anti-glypican-3 IgG1; mutation in the GpH7-B3 chain only; also called He Ab E269A
For the molecule B7, in assay [1], the He/Con_1a is 104 relative, GpH7-A5/GpH7-B3/GpL16-k0 = 100. For the same molecule, in assay [2], the He/Con_2b is 49.9 relative, GpH7-A5/GpH7-B3/GpL16-k0 = 100.

B8: GpH7-A5/GpH7-B3 variant E269_18N/GpL16-k0 (antibody, human IgG1, kappa)
heavy 1: not shown
heavy 2: not shown
light: DIVMTQSPLSLPVTPGEPASISCQASESLVHSNRNTYLHWYLQKPGQSPQLLIYKVSNRFSGVPDRFSGSGSGTDFTLKISRVEAEDVGVYYCSQNTHVPPTFGQGTKVEIERTVAAPSVFIFPPSDEQLKSGTASVVCLLNNFYPREAKVQWKVDNALQSGNSQESVTEQDSKDSTYSLSSTLTLSKADYEKHKVYACEVTHQGLSSPVTKSFNRGEC
notes: Heterodimerized anti-glypican-3 IgG1; mutation in the GpH7-B3 chain only; also called He Ab E269N
Consider B8, for which the He/Con_1a in assay [1] was 102 relative, GpH7-A5/GpH7-B3/GpL16-k0 = 100. Also, the He/Con_2b in assay [2] was 44.8 relative, GpH7-A5/GpH7-B3/GpL16-k0 = 100.

B9: GpH7-A5/GpH7-B3 variant E269_11K/GpL16-k0 (antibody, human IgG1, kappa)
heavy 1: not shown
heavy 2: not shown
light: DIVMTQSPLSLPVTPGEPASISCQASESLVHSNRNTYLHWYLQKPGQSPQLLIYKVSNRFSGVPDRFSGSGSGTDFTLKISRVEAEDVGVYYCSQNTHVPPTFGQGTKVEIERTVAAPSVFIFPPSDEQLKSGTASVVCLLNNFYPREAKVQWKVDNALQSGNSQESVTEQDSKDSTYSLSSTLTLSKADYEKHKVYACEVTHQGLSSPVTKSFNRGEC
notes: Heterodimerized anti-glypican-3 IgG1; mutation in the GpH7-B3 chain only; also called He Ab E269K
On to B9, for which the He/Con_1a in assay [1] was 95.2 relative, GpH7-A5/GpH7-B3/GpL16-k0 = 100. In addition, the He/Con_2b in assay [2] is 17.8 relative, GpH7-A5/GpH7-B3/GpL16-k0 = 100.
